System: Escherichia coli TOP10
Assay: shrunken log2 fold change of peptide-encoding DNA abundance (4.5 h post-induction vs induction); higher = less antimicrobial activity (less host growth inhibition)
Settings: time post-induction: 4.5 h; library: site-saturation at positions 5, 18, 19, 20
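Further: peptides expressed intracellularly from a pBAD plasmid library in pooled LB shake-flask culture, induced with 0.3% L-arabinose, DNA abundance read by NGS, three biological replicates, DESeq2 with apeglm shrinkage.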

RRIRYRPPRLPRPRPRPAVCPRP
shrunken log2 fold change: -0.0135

RRIRYRPPRLPRPRPRPAWFPRP
shrunken log2 fold change: -0.0816

RRIRYRPPRLPRPRPRPAWVPRP
shrunken log2 fold change: 0.0366

RRIRYRPPRLPRPRPRPCASPRP
shrunken log2 fold change: -0.12

RRIRYRPPRLPRPRPRPCCEPRP
shrunken log2 fold change: -0.567

RRIRYRPPRLPRPRPRPCFGPRP
shrunken log2 fold change: -0.0967

RRIRYRPPRLPRPRPRPCHPPRP
shrunken log2 fold change: -0.669

RRIRYRPPRLPRPRPRPCIGPRP
shrunken log2 fold change: -0.644

RRIRYRPPRLPRPRPRPCKTPRP
shrunken log2 fold change: -0.154

RRIRYRPPRLPRPRPRPCKWPRP
shrunken log2 fold change: -0.063

RRIRYRPPRLPRPRPRPCKYPRP
shrunken log2 fold change: -0.627

RRIRYRPPRLPRPRPRPCLRPRP
shrunken log2 fold change: -0.286

RRIRYRPPRLPRPRPRPCNEPRP
shrunken log2 fold change: 0.0341

RRIRYRPPRLPRPRPRPCNFPRP
shrunken log2 fold change: -0.303

RRIRYRPPRLPRPRPRPCNIPRP
shrunken log2 fold change: -0.463

RRIRYRPPRLPRPRPRPCNKPRP
shrunken log2 fold change: -0.0167

RRIRYRPPRLPRPRPRPCNQPRP
shrunken log2 fold change: -0.224

RRIRYRPPRLPRPRPRPCQHPRP
shrunken log2 fold change: -0.253

RRIRYRPPRLPRPRPRPCSCPRP
shrunken log2 fold change: -0.155

RRIRYRPPRLPRPRPRPCTNPRP
shrunken log2 fold change: 0.0527

RRIRYRPPRLPRPRPRPCTRPRP
shrunken log2 fold change: -0.111

RRIRYRPPRLPRPRPRPCTYPRP
shrunken log2 fold change: -0.194

RRIRYRPPRLPRPRPRPCWEPRP
shrunken log2 fold change: -0.288

RRIRYRPPRLPRPRPRPCWHPRP
shrunken log2 fold change: -0.0701

RRIRYRPPRLPRPRPRPCWVPRP
shrunken log2 fold change: -0.158

RRIRYRPPRLPRPRPRPCYAPRP
shrunken log2 fold change: -0.00203

RRIRYRPPRLPRPRPRPCYSPRP
shrunken log2 fold change: -0.00871

RRIRYRPPRLPRPRPRPDALPRP
shrunken log2 fold change: -0.212

RRIRYRPPRLPRPRPRPDAMPRP
shrunken log2 fold change: -0.0326

RRIRYRPPRLPRPRPRPDCLPRP
shrunken log2 fold change: -0.209

RRIRYRPPRLPRPRPRPDCSPRP
shrunken log2 fold change: -0.315

RRIRYRPPRLPRPRPRPDCWPRP
shrunken log2 fold change: -0.105

RRIRYRPPRLPRPRPRPDDGPRP
shrunken log2 fold change: 0.0672

RRIRYRPPRLPRPRPRPDEGPRP
shrunken log2 fold change: -0.226

RRIRYRPPRLPRPRPRPDFAPRP
shrunken log2 fold change: 0.0515

RRIRYRPPRLPRPRPRPDFMPRP
shrunken log2 fold change: -2.08

RRIRYRPPRLPRPRPRPDHMPRP
shrunken log2 fold change: -0.552

RRIRYRPPRLPRPRPRPDIMPRP
shrunken log2 fold change: -1.15

RRIRYRPPRLPRPRPRPDLNPRP
shrunken log2 fold change: -0.0755

RRIRYRPPRLPRPRPRPDMQPRP
shrunken log2 fold change: 0.0426

RRIRYRPPRLPRPRPRPDPGPRP
shrunken log2 fold change: -0.124

RRIRYRPPRLPRPRPRPDPSPRP
shrunken log2 fold change: -0.566

RRIRYRPPRLPRPRPRPDRQPRP
shrunken log2 fold change: -0.0345

RRIRYRPPRLPRPRPRPDSFPRP
shrunken log2 fold change: 0.0025

RRIRYRPPRLPRPRPRPDTFPRP
shrunken log2 fold change: -0.016

RRIRYRPPRLPRPRPRPDVLPRP
shrunken log2 fold change: 0.0494

RRIRYRPPRLPRPRPRPDWIPRP
shrunken log2 fold change: -0.589

RRIRYRPPRLPRPRPRPDWKPRP
shrunken log2 fold change: -0.208

RRIRYRPPRLPRPRPRPDYQPRP
shrunken log2 fold change: 0.0202

RRIRYRPPRLPRPRPRPEAMPRP
shrunken log2 fold change: -0.0891

RRIRYRPPRLPRPRPRPEDHPRP
shrunken log2 fold change: -0.581

RRIRYRPPRLPRPRPRPEDWPRP
shrunken log2 fold change: -0.252

RRIRYRPPRLPRPRPRPEFQPRP
shrunken log2 fold change: -0.47

RRIRYRPPRLPRPRPRPEGTPRP
shrunken log2 fold change: -0.0176

RRIRYRPPRLPRPRPRPEHKPRP
shrunken log2 fold change: -0.605

RRIRYRPPRLPRPRPRPEISPRP
shrunken log2 fold change: -0.00407

RRIRYRPPRLPRPRPRPEKAPRP
shrunken log2 fold change: 0.00447

RRIRYRPPRLPRPRPRPELMPRP
shrunken log2 fold change: -0.128

RRIRYRPPRLPRPRPRPEMIPRP
shrunken log2 fold change: 0.0135

RRIRYRPPRLPRPRPRPENMPRP
shrunken log2 fold change: -0.134

RRIRYRPPRLPRPRPRPEPQPRP
shrunken log2 fold change: -0.777

RRIRYRPPRLPRPRPRPEPRPRP
shrunken log2 fold change: 0.408

RRIRYRPPRLPRPRPRPEQHPRP
shrunken log2 fold change: -0.0567

RRIRYRPPRLPRPRPRPEQRPRP
shrunken log2 fold change: -0.067

RRIRYRPPRLPRPRPRPERFPRP
shrunken log2 fold change: 0.0461

RRIRYRPPRLPRPRPRPERWPRP
shrunken log2 fold change: 0.44

RRIRYRPPRLPRPRPRPESDPRP
shrunken log2 fold change: 0.03

RRIRYRPPRLPRPRPRPESEPRP
shrunken log2 fold change: -0.0162

RRIRYRPPRLPRPRPRPESNPRP
shrunken log2 fold change: -0.23

RRIRYRPPRLPRPRPRPETTPRP
shrunken log2 fold change: -0.289

RRIRYRPPRLPRPRPRPEVDPRP
shrunken log2 fold change: -0.191

RRIRYRPPRLPRPRPRPEVFPRP
shrunken log2 fold change: -0.0536

RRIRYRPPRLPRPRPRPEVNPRP
shrunken log2 fold change: -0.0081

RRIRYRPPRLPRPRPRPEWRPRP
shrunken log2 fold change: 0.172

RRIRYRPPRLPRPRPRPFASPRP
shrunken log2 fold change: -0.000244

RRIRYRPPRLPRPRPRPFCGPRP
shrunken log2 fold change: -0.133

RRIRYRPPRLPRPRPRPFHWPRP
shrunken log2 fold change: 0.0011

RRIRYRPPRLPRPRPRPFIAPRP
shrunken log2 fold change: -1.12

RRIRYRPPRLPRPRPRPFLDPRP
shrunken log2 fold change: -0.00748

RRIRYRPPRLPRPRPRPFLFPRP
shrunken log2 fold change: -0.704

RRIRYRPPRLPRPRPRPFLHPRP
shrunken log2 fold change: -0.786

RRIRYRPPRLPRPRPRPFNQPRP
shrunken log2 fold change: -0.0309

RRIRYRPPRLPRPRPRPFREPRP
shrunken log2 fold change: -0.35

RRIRYRPPRLPRPRPRPFSVPRP
shrunken log2 fold change: -0.313

RRIRYRPPRLPRPRPRPFSWPRP
shrunken log2 fold change: -0.235

RRIRYRPPRLPRPRPRPFWIPRP
shrunken log2 fold change: -0.0013

RRIRYRPPRLPRPRPRPFWWPRP
shrunken log2 fold change: -0.102

RRIRYRPPRLPRPRPRPFYRPRP
shrunken log2 fold change: -0.0056

RRIRYRPPRLPRPRPRPGAIPRP
shrunken log2 fold change: -0.284

RRIRYRPPRLPRPRPRPGASPRP
shrunken log2 fold change: -0.313

RRIRYRPPRLPRPRPRPGEAPRP
shrunken log2 fold change: 0.124

RRIRYRPPRLPRPRPRPGGRPRP
shrunken log2 fold change: -0.019

RRIRYRPPRLPRPRPRPGGTPRP
shrunken log2 fold change: -0.0623

RRIRYRPPRLPRPRPRPGKDPRP
shrunken log2 fold change: -0.148

RRIRYRPPRLPRPRPRPGLEPRP
shrunken log2 fold change: 0.114

RRIRYRPPRLPRPRPRPGMIPRP
shrunken log2 fold change: -0.252

RRIRYRPPRLPRPRPRPGMQPRP
shrunken log2 fold change: -0.224

RRIRYRPPRLPRPRPRPGMSPRP
shrunken log2 fold change: -0.137

RRIRYRPPRLPRPRPRPGMYPRP
shrunken log2 fold change: -1.44

RRIRYRPPRLPRPRPRPGQDPRP
shrunken log2 fold change: -0.346

RRIRYRPPRLPRPRPRPGQVPRP
shrunken log2 fold change: -0.0686

RRIRYRPPRLPRPRPRPGSIPRP
shrunken log2 fold change: -0.606

RRIRYRPPRLPRPRPRPGTTPRP
shrunken log2 fold change: -0.0671

RRIRYRPPRLPRPRPRPGVTPRP
shrunken log2 fold change: -0.048

RRIRYRPPRLPRPRPRPGWMPRP
shrunken log2 fold change: -0.000507

RRIRYRPPRLPRPRPRPGWRPRP
shrunken log2 fold change: 0.386

RRIRYRPPRLPRPRPRPGYAPRP
shrunken log2 fold change: -0.456

RRIRYRPPRLPRPRPRPGYTPRP
shrunken log2 fold change: 0.0577

RRIRYRPPRLPRPRPRPHAFPRP
shrunken log2 fold change: 0.0566

RRIRYRPPRLPRPRPRPHAGPRP
shrunken log2 fold change: 0.0561

RRIRYRPPRLPRPRPRPHANPRP
shrunken log2 fold change: -0.16

RRIRYRPPRLPRPRPRPHAQPRP
shrunken log2 fold change: -0.0405

RRIRYRPPRLPRPRPRPHCFPRP
shrunken log2 fold change: -0.165

RRIRYRPPRLPRPRPRPHESPRP
shrunken log2 fold change: 0.00952

RRIRYRPPRLPRPRPRPHFAPRP
shrunken log2 fold change: -0.284

RRIRYRPPRLPRPRPRPHFKPRP
shrunken log2 fold change: -0.346

RRIRYRPPRLPRPRPRPHFMPRP
shrunken log2 fold change: -0.0918

RRIRYRPPRLPRPRPRPHHEPRP
shrunken log2 fold change: -0.0815

RRIRYRPPRLPRPRPRPHKYPRP
shrunken log2 fold change: -1.08

RRIRYRPPRLPRPRPRPHLWPRP
shrunken log2 fold change: -0.255

RRIRYRPPRLPRPRPRPHNMPRP
shrunken log2 fold change: -0.17

RRIRYRPPRLPRPRPRPHQLPRP
shrunken log2 fold change: -0.191

RRIRYRPPRLPRPRPRPHQSPRP
shrunken log2 fold change: 0.0552

RRIRYRPPRLPRPRPRPHRDPRP
shrunken log2 fold change: -0.288

RRIRYRPPRLPRPRPRPHSCPRP
shrunken log2 fold change: -0.00211

RRIRYRPPRLPRPRPRPHSKPRP
shrunken log2 fold change: -0.463

RRIRYRPPRLPRPRPRPHSRPRP
shrunken log2 fold change: -0.103

RRIRYRPPRLPRPRPRPHTKPRP
shrunken log2 fold change: -0.149

RRIRYRPPRLPRPRPRPHVWPRP
shrunken log2 fold change: 0.0773

RRIRYRPPRLPRPRPRPHWVPRP
shrunken log2 fold change: 0.0405

RRIRYRPPRLPRPRPRPHWWPRP
shrunken log2 fold change: -0.0763

RRIRYRPPRLPRPRPRPHYEPRP
shrunken log2 fold change: -1.49

RRIRYRPPRLPRPRPRPHYIPRP
shrunken log2 fold change: -0.318

RRIRYRPPRLPRPRPRPHYQPRP
shrunken log2 fold change: -0.522

RRIRYRPPRLPRPRPRPHYRPRP
shrunken log2 fold change: -0.433

RRIRYRPPRLPRPRPRPIAFPRP
shrunken log2 fold change: -0.564

RRIRYRPPRLPRPRPRPIASPRP
shrunken log2 fold change: -0.196

RRIRYRPPRLPRPRPRPIATPRP
shrunken log2 fold change: 0.0782

RRIRYRPPRLPRPRPRPICFPRP
shrunken log2 fold change: -0.332

RRIRYRPPRLPRPRPRPIDMPRP
shrunken log2 fold change: -0.315

RRIRYRPPRLPRPRPRPIEQPRP
shrunken log2 fold change: -0.00931

RRIRYRPPRLPRPRPRPIFHPRP
shrunken log2 fold change: -0.456

RRIRYRPPRLPRPRPRPIFIPRP
shrunken log2 fold change: -0.631

RRIRYRPPRLPRPRPRPIFKPRP
shrunken log2 fold change: -0.133

RRIRYRPPRLPRPRPRPIHRPRP
shrunken log2 fold change: -0.0635

RRIRYRPPRLPRPRPRPIMAPRP
shrunken log2 fold change: -0.708

RRIRYRPPRLPRPRPRPINEPRP
shrunken log2 fold change: -0.181

RRIRYRPPRLPRPRPRPINQPRP
shrunken log2 fold change: -0.113

RRIRYRPPRLPRPRPRPIPEPRP
shrunken log2 fold change: 0.0704

RRIRYRPPRLPRPRPRPIPQPRP
shrunken log2 fold change: -0.0934

Source: the supplement of paper PMC9112550, “Optimization of the antimicrobial peptide Bac7 by deep mutational scanning” (BMC Biology, 2022)
